We go through 2 substances from article PMC4368098.

Data set [1] addresses DICER (human) (UniProt Q9UPY3).
The target in data set [2] is DICER;ARGONAUTE2 (AGO2) (human;human) (UniProt Q9UPY3+Q9UKV8). Put plainly: competition (fluorogenic siRNA processing). The following applies: 80 nM BoPsi664, 30 nM each enzyme; Assay Buffer with 1 mM free Mg2+ (full composition not in the material), 37 C; indirect read-out by competitive inhibition of fluorogenic siRNA processing, no ….

With “ARGONAUTE2 (from UniProt Q9UKV8 1-859) (enzyme)”, in data set [1], the K d,app from a Morrison-equation fit of enzymatic activity: DICER (25 nM) titrated with AGO2, fluorogenic DICER substrate BoGD664 (250 nM), 37°C was found to be 2.2 nM; the K d,app from a Morrison-equation fit of enzymatic activity: DICER (25 nM) titrated with AGO2, fluorogenic DICER substrate BoPD664 (250 nM), 37°C worked out at 0.54 nM; the molar ratio AGO2:DICER at which enzymatic activity on DICER substrates stops rising (titration of DICER, 25 nM, with AGO2) (molar ratio AGO2:DICER) stood at 1.

Take AllStars Negative Control siRNA: in data set [2], the IC50 is 209 nM.

What is called IC50 is the concentration needed to halve the response being measured.
